Measurements as given in the supplement of paper PMC7125110.
± gives the standard error. For some of these results: Variants at the floor of the assay were thinned out.

B1: glmS ribozyme (parent)
chain: AUAAAAGCGCCAGAACUACAGAAAUGUAGUUGACGAGGAGGAGGUUUAUCGAAUUUUCGGCGGAUGCCUCCAAA

Tests used:
Settings in all cases: with glucosamine-6-phosphate
[1] = variants of: B1; test: kcat; higher = faster cleavage; RNA array
How it was run: (§1)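 A hybridised Cy3 probe tracked barcoded ribozyme variants, transcribed in situ by E. coli RNA polymerase on sequenced MiSeq chips, at 37 °C. The variants received 40 μM to 10 mM glucosamine-6-phosphate in HEPES/KCl/Mg(OAc)2 buffer. kobs came from decay fits and kcat and KM from weighted Michaelis–Menten fits.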

[2] = variants of: B1; test: self-cleavage kobs at 40 uM GlcN6P; higher = faster cleavage; RNA array
How it was run: as §1

[3] = variants of: B1; test: KM; higher = weaker cofactor use; RNA array
How it was run: as §1

[4] = variants of: B1; test: self-cleavage kobs at 640 uM GlcN6P; higher = faster cleavage; RNA array
How it was run: as §1

[5] = variants of: B1; test: self-cleavage kobs at 2500 uM GlcN6P; higher = faster cleavage; RNA array
How it was run: as §1

[6] = variants of: B1; test: self-cleavage kobs at 10000 uM GlcN6P; higher = faster cleavage; RNA array
How it was run: as §1

[7] = variants of: B1; test: self-cleavage kobs at 160 uM GlcN6P; higher = faster cleavage; RNA array
How it was run: as §1

Variant | kcat [1] | self-cleavage kobs at 40 uM GlcN6P [2] | KM [3] | self-cleavage kobs at 640 uM GlcN6P [4] | self-cleavage kobs at 2500 uM GlcN6P [5] | self-cleavage kobs at 10000 uM GlcN6P [6] | self-cleavage kobs at 160 uM GlcN6P [7]
A52U U65C | < 1e-05 s⁻¹ | < 1e-05 s⁻¹ | – | – | – | – | –
G29A G37C | 1.28e-05 ± 1.4e-06 s⁻¹ | – | – | – | – | – | –
C16U U46A U54G C70A | 0.000156 ± 2.4e-05 s⁻¹ | – | 743 ± 300 µM | 6.86e-05 ± 2.2e-05 s⁻¹ | 0.000143 ± 3.9e-05 s⁻¹ | 0.000124 ± 5e-05 s⁻¹ | –
U65C C71G | 4.3e-05 ± 1.5e-05 s⁻¹ | < 1e-05 s⁻¹ | – | – | 8.15e-05 ± 1.6e-05 s⁻¹ | 3.44e-05 ± 8.1e-06 s⁻¹ | –
A15U G41U | 0.000143 ± 2.5e-05 s⁻¹ | – | – | 0.000255 ± 5.3e-05 s⁻¹ | 0.000115 ± 1.5e-05 s⁻¹ | 0.000149 ± 1.7e-05 s⁻¹ | 4.82e-05 ± 1.4e-05 s⁻¹
A42U U54A | 0.000282 ± 2.2e-05 s⁻¹ | – | 1890 ± 340 µM | 6.94e-05 ± 9.8e-06 s⁻¹ | 0.000177 ± 2e-05 s⁻¹ | 0.000231 ± 2e-05 s⁻¹ | –
G29U U45A | 0.0141 ± 0.0034 s⁻¹ | 0.000225 ± 4.9e-05 s⁻¹ | 2740 ± 820 µM | 0.00237 ± 0.00044 s⁻¹ | 0.00765 ± 0.0017 s⁻¹ | 0.0103 ± 0.005 s⁻¹ | 0.000796 ± 0.00018 s⁻¹
U57G C70A | 4.31e-05 ± 1.5e-05 s⁻¹ | – | – | 4.1e-05 ± 1.7e-05 s⁻¹ | 6.82e-05 ± 1.9e-05 s⁻¹ | – | 3.33e-05 ± 1.3e-05 s⁻¹
U31C C71U | 0.00657 ± 0.0031 s⁻¹ | 0.000177 ± 1.7e-05 s⁻¹ | – | 0.00111 ± 0.00013 s⁻¹ | 0.00536 ± 0.00083 s⁻¹ | 0.00504 ± 0.00056 s⁻¹ | 0.000289 ± 3.6e-05 s⁻¹
U30G U55G | 0.00756 ± 0.0019 s⁻¹ | 0.00025 ± 5.1e-05 s⁻¹ | 1440 ± 590 µM | 0.00222 ± 0.00047 s⁻¹ | 0.00378 ± 0.00086 s⁻¹ | 0.00866 ± 0.0016 s⁻¹ | –
C58A C61U | < 1e-05 s⁻¹ | – | – | – | – | – | –
U45A U47C | 0.00985 ± 0.0035 s⁻¹ | 0.00017 ± 4.6e-05 s⁻¹ | 2660 ± 1300 µM | 0.00165 ± 0.00043 s⁻¹ | 0.0091 ± 0.0044 s⁻¹ | 0.00776 ± 0.0024 s⁻¹ | –
C11A A14G | 0.000935 ± 5.4e-05 s⁻¹ | 1.65e-05 ± 7.4e-06 s⁻¹ | 1790 ± 200 µM | 0.000261 ± 3.2e-05 s⁻¹ | 0.00051 ± 7.7e-05 s⁻¹ | 0.000802 ± 7.8e-05 s⁻¹ | 7.64e-05 ± 2e-05 s⁻¹
G29U G41C U54G C70G | 0.0128 ± 0.0056 s⁻¹ | 0.00037 ± 9.8e-05 s⁻¹ | – | 0.00251 ± 0.00059 s⁻¹ | 0.0068 ± 0.0018 s⁻¹ | 0.0126 ± 0.0039 s⁻¹ | –
G13A U31C | 0.00123 ± 0.00012 s⁻¹ | – | 4560 ± 740 µM | 0.000169 ± 3.3e-05 s⁻¹ | 0.000441 ± 6.9e-05 s⁻¹ | 0.00084 ± 0.00011 s⁻¹ | 3.44e-05 ± 1.2e-05 s⁻¹
